Measurements taken from patent CN112574305A (UNIV TSINGHUA RES INST SHENZHEN, dated 2021).

Columns and labels:
ProBDNF = molecular target: T1, ProBDNF; experiment: ELISA, OD450
T1 sequence (peptide): CDQKVRPNEENNKDA

mBDNF = molecular target: T2, mBDNF (UniProt P23560 129-247, limits assumed); experiment: ELISA, mBDNF coated at 2 μg/ml, purified antibody added, OD450
T2 construct: mature; also called 成熟BDNF
T2 sequence (looked up): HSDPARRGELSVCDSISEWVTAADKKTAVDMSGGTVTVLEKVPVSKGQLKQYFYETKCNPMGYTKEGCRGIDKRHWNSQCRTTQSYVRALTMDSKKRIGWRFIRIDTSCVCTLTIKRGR

抗原浓度 (lowest antigen concentration detected) (ProBDNF): 1.95 ng/mL
binding result (mBDNF): no binding
B1: 抗ProBDNF抗体 (antibody, IgG2b, V domains shown)
VH: QVQLQQSGPELVKPGASVTISCKTSAYGFSSSWMNWVKQRPGQGLEWIGRIYPGDGETNYNGKFMGKATLTADKSSNTVYMHLSSLTSVDSAVYFCTRRELVYWGQGTLVTVSA
VL: DIVLTQSPASLAVSLGQRATISCRTSESVDTYGNSFIHWYQQKPGQPPKLLIYRASRLESGIPARFSGSGSRTDFTLTINPVEADDVATYYCQQSYEDPWTFGGGTKLEIK
notes: Mouse hybridoma antibody, made recombinantly in 293 cells; also called 针对前体脑源性神经营养因子的抗体; 实施例2提供的纯化抗体
